Each block holds one substance with its values, some of them ahead of it.
Columns and labels:
BRCA1 = BRCA1 (UniProt P38398); experiment: co-immunoprecipitation; settings: reference: wild type; sites S674
[1] = molecular target: phosphorylated pS674 peptide of UHRF1 (human (RefSeq NP_037414.3)); experiment: SPR; BIAcore; biotinylated peptides on a streptavidin chip (about 250 RU); GST-BRCA1-BRCT as analyte, 39 nM to 2.5 μM (legend: 17 nM to 2.5 μM), 30 μl min^-1; 150 mM NaCl, 0.005% Polysorbate 20, 10 mM HEPES pH 7.4, 1 mM PMSF
BRCA1 BRCT domain = BRCA1 BRCT domain (UniProt P38398); experiment: far-Western, GST-BRCT overlay on His-UHRF1; settings: reference: kinase-treated His-UHRF1 WT; sites S674

binding against the reference (BRCA1): weaker
Substance: UHRF1 (from UniProt Q96T88-2) S674A

Kd [1]: 356 nM
Substance: GST-BRCT (wild type) domain of BRCA1 (domain or fragment)

binding against the reference (BRCA1 BRCT domain): lost
Substance: UHRF1 (from UniProt Q96T88-2) kinase-treated His-UHRF1 S674A
